± gives the uncertainty stated by the source.
Assay: amyloid nucleation score (Sup35N fusion, yeast selection) (log enrichment); library NNK3; higher = more nucleation; inactive = no reads after selection
Procedure, shortened: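 The nucleation score equals the log enrichment of output over input reads from DiMSum, centred on the mode score of non-aggregating sequences. It was computed only for sequences with 100 or more input reads. The reads came from Illumina sequencing of plasmid inserts from psi-negative yeast expressing Sup35N fused to peptides of 20 random codons, induced with 100 μM copper sulfate for 24 hours and grown 7 days at 30°C without adenine and uracil.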
For LICNCHPRESSDPTFLCGLG, the amyloid nucleation score was “inactive”.
LICVYVWVHCLMNPYHAINR gave an amyloid nucleation score of 0.199 ± 0.16.
For LIDWTDNRYPYRHHHFCPNA, the amyloid nucleation score was “inactive”.
With LIEWYFDN the amyloid nucleation score was “inactive”.
For LIFRRCLCNSSCYDLIAGRG, the amyloid nucleation score was “inactive”.
With LIGLMWFVMWFFMARMREIN the amyloid nucleation score was “inactive”.
With LIIVMFPAVCIVFDFNFTVF the amyloid nucleation score was “inactive”.
With LILSSCVKGPVSCRPM the amyloid nucleation score was “inactive”.
With LILVCSSGRAIMKRAPCKFR the amyloid nucleation score was “inactive”.
In the case of LIMLFHSWMSTRWYGVVSNS, the amyloid nucleation score is reported as “inactive”.
With LINKFRWPTPNECLVPVFQD the amyloid nucleation score was “inactive”.
For LINVPDGSSSKLSDMV, the amyloid nucleation score was “inactive”.
In the case of LIRQRLDRLVQHFVDFRVFF, the amyloid nucleation score is reported as “inactive”.
Substance LIVGKNNVPMFTSNKFLVFS has an amyloid nucleation score of -0.508 ± 0.8.
With LIWFGGGPSRWSM the amyloid nucleation score was -0.117 ± 1.1.
With LIWQGCV the amyloid nucleation score was “inactive”.
LIYTGSAIIINRIWE gave an amyloid nucleation score of 2.17 ± 0.08.
LKDAHQWIYLW gave an amyloid nucleation score of -0.779 ± 0.88.
In the case of LKFFVYLLNLYEDFLPVRFS, the amyloid nucleation score is reported as “inactive”.
For LKGKP, the amyloid nucleation score was “inactive”.
In the case of LKHCQMGVVTSSYLMWLVGT, the amyloid nucleation score is reported as “inactive”.
For LKIWLRSYPYPLTGQKQRPK, the amyloid nucleation score was “inactive”.
For LKQDVKTAVFFFGVD, the amyloid nucleation score was 1.1 ± 0.15.
With LKSMLLSMRSIIEYCQQMVG the amyloid nucleation score was “inactive”.
Substance LKTTDLLPQVTCPHLCILFL has an amyloid nucleation score of 0.808 ± 0.23.
In the case of LKWCFFCCN, the amyloid nucleation score is reported as 2.54 ± 0.065.
With LKYEERSGWWSLGSGVCGVV the amyloid nucleation score was “inactive”.
LLDKVLSEPKTSQDRSENVA showed an amyloid nucleation score of -0.696 ± 1.1.
With LLEIPNSRDGFHRGSTVGDL the amyloid nucleation score was “inactive”.
For LLFAYLMRMRISVHIWVRGT, the amyloid nucleation score was “inactive”.
With LLFMYSDMTYTWCIFYGELW the amyloid nucleation score was “inactive”.
With LLFQMVHLTCVMYLLVSSTL the amyloid nucleation score was “inactive”.
For LLGSSFFIRLFWTSSSFAAK, the amyloid nucleation score was “inactive”.
LLGTEIWGCRRISHSGVMRW gave an amyloid nucleation score of -0.009 ± 0.43.
In the case of LLGWCCSDNPDRRKEY, the amyloid nucleation score is reported as “inactive”.
LLHFVHNSSSMLVRRREETG showed an amyloid nucleation score of 0.262 ± 0.39.
In the case of LLHRTWVFNSELPWCRYVLK, the amyloid nucleation score is reported as “inactive”.
For LLIGNY, the amyloid nucleation score was “inactive”.
With LLIKAAFGKMVRCKFRLIEW the amyloid nucleation score was -0.454 ± 1.4.
With LLIRTSLVGEIPLSVSVGCL the amyloid nucleation score was “inactive”.
In the case of LLLPIS, the amyloid nucleation score is reported as “inactive”.
In the case of LLLWSAIIYK, the amyloid nucleation score is reported as “inactive”.
For LLLYLN, the amyloid nucleation score was “inactive”.
With LLNRDI the amyloid nucleation score was “inactive”.
With LLNSM the amyloid nucleation score was “inactive”.
Substance LLPLFHNVIIGNCLFGCEPP has an amyloid nucleation score of 1.62 ± 0.11.
For LLRIPGF, the amyloid nucleation score was “inactive”.
LLSILTWVSIYRRCFSFTAR showed an amyloid nucleation score of -0.758 ± 0.88.
With LLTKSLNPYMMGCSSSIMQC the amyloid nucleation score was “inactive”.
In the case of LLTYHTSGYSCWSEG, the amyloid nucleation score is reported as “inactive”.
With LLVAYPHYAGFCTAVSSKSG the amyloid nucleation score was “inactive”.
In the case of LLVSQLRYYWTATRNKFIF, the amyloid nucleation score is reported as “inactive”.
LLVTQGVYS gave an amyloid nucleation score of 1.17 ± 0.12.
LLYRWVGFHLIKLSVNAWLS showed an amyloid nucleation score of -1.01 ± 2.4.
With LMGTQVVFDDTDPYTEKGLL the amyloid nucleation score was “inactive”.
In the case of LMIEGLSDIHVLMAVSPERG, the amyloid nucleation score is reported as “inactive”.
Substance LMKMKRFLQLWTIGDGASKS has an amyloid nucleation score of 1.81 ± 0.09.
With LMLDFSIGRSPGDNAVICRH the amyloid nucleation score was “inactive”.
In the case of LMLGYLKYLYGAANRICYRS, the amyloid nucleation score is reported as “inactive”.
LMPCALFSGVYEAGRHGSFL gave an amyloid nucleation score of 0.462 ± 0.34.
In the case of LMYLTCPPRGDSTFPKVIRQ, the amyloid nucleation score is reported as “inactive”.
In the case of LMYVS, the amyloid nucleation score is reported as “inactive”.
With LNDDLCSRVFWVYEYHECQV the amyloid nucleation score was “inactive”.
With LNEFIKYLDICKFFSCSGRN the amyloid nucleation score was 1.61 ± 0.1.
With LNFPQMSYP the amyloid nucleation score was “inactive”.
In the case of LNGRYSLLWR, the amyloid nucleation score is reported as “inactive”.

Reference: the supplement of paper PMC12042874
